Key:
[1] = molecular target: VAP, endogenous in cultured rat hippocampal neurons (UniProt Q9Z270); test: co-immunoprecipitation (IP: NRG2 (V5)), Western blot densitometry; details: AAV-transduced neurons; n = four independent experiments; parent: 1.00; read off a plot
[2] = molecular target: crNRG2 (cleavage-resistant variant of proNRG2) (human) (UniProt O14511); test: co-IP; co-IP of VAP with crNRG2 from transduced rat hippocampal neurons; neurons untreated (Ctrl), treated 10 min with NMDA (50 µM), or with NMDA and D-AP5 (50 µM); VAP signals normalized to Ctrl = 1
[3] = molecular target: VAP, endogenous in cultured rat hippocampal neurons (UniProt Q9Z270); test: GST pulldown with peptide competition, Western blot densitometry (VAP left on GST-NRG2_CD bait; lower signal = stronger competition by the peptide); details: lysate of untransduced neurons, n = three independent experiments, parent: est. 0.14, read off a plot, scale: normalized VAP signal

Row | Substance | ratio to parent [1] | other results
1 | V5 epitope-tagged proNRG2 (wild type), expressed in cultured rat hippocampal neurons (from UniProt O14511) S613A; T625A; T626A | 0.73 | 
2 | VAP, endogenous in cultured rat hippocampal neurons (from UniProt Q9Z270 1-249) (natural protein) |  | normalized VAP co-IP signal after 10 min NMDA 50 µM (Ctrl = 1) (relative to Ctrl = 1) [2]: 0.31; normalized VAP co-IP signal after NMDA with D-AP5 50 µM (Ctrl = 1) (relative to Ctrl = 1) [2]: 1.1
3 | V5 epitope-tagged proNRG2 (wild type), expressed in cultured rat hippocampal neurons (from UniProt O14511) S494A; S497A; S502A; T506A; S511A | 0 | 
4 | D-WT peptide (wild-type D-box peptide of NRG2) D620K; E622K |  | response [3]: 0.63
5 | V5 epitope-tagged proNRG2 (wild type), expressed in cultured rat hippocampal neurons (from UniProt O14511) S494A; S497A; S502A; T506A; S511A; S613A; T625A; T626A | 0 | 

— publication PMC9917868
